What was measured:
[1] = test system: OPM2.CMV.PD.FcRH5.5P.2 cells; assay: In vitro cell proliferation assay (CellTiter-Glo Luminescent Cell Viability Assay); type: cell-based, human; details: OPM2.CMV.PS.FcRH5.5P.2 cells, 3 days incubation
Description: The homogeneous “add-mix-measure” format results in cell lysis and generation of a luminescent signal proportional to the amount of ATP present. The substrate, Beetle Luciferin, is oxidatively decarboxylated by recombinant firefly luciferase with concomitant conversion of ATP to AMP and generation of photons. Viable cells are reflected in relative luminescence units (RLU). Data can be recorded by luminometer or CCD camera imaging device. […] Alternatively, photons from luminescence can be counted in a scintillation counter in the presence of a scintillant.
3. The plates were equilibrated to room temperature for approximately 30 minutes.
5. The contents were mixed for 2 minutes on an orbital shaker to induce cell lysis.
6. The plate was incubated at room temperature for 10 minutes to stabilize the luminescence signal.

[2] = biological target: T1, human FcRH5 (Homo sapiens, UniProt Q96RD9, G418D/L733P/S890P/V466I/Y267H); assay: Affinity determination (Scatchard analysis) on cells expressing human FcRH5; type: binding; details: by FACS and Scatchard analysis
T1 construct: expressed in transfected cells; host or cells: OPM2 multiple myeloma cells
T1 sequence (Q96RD9 16-977 Y267H/G418D/V466I/L733P/S890P): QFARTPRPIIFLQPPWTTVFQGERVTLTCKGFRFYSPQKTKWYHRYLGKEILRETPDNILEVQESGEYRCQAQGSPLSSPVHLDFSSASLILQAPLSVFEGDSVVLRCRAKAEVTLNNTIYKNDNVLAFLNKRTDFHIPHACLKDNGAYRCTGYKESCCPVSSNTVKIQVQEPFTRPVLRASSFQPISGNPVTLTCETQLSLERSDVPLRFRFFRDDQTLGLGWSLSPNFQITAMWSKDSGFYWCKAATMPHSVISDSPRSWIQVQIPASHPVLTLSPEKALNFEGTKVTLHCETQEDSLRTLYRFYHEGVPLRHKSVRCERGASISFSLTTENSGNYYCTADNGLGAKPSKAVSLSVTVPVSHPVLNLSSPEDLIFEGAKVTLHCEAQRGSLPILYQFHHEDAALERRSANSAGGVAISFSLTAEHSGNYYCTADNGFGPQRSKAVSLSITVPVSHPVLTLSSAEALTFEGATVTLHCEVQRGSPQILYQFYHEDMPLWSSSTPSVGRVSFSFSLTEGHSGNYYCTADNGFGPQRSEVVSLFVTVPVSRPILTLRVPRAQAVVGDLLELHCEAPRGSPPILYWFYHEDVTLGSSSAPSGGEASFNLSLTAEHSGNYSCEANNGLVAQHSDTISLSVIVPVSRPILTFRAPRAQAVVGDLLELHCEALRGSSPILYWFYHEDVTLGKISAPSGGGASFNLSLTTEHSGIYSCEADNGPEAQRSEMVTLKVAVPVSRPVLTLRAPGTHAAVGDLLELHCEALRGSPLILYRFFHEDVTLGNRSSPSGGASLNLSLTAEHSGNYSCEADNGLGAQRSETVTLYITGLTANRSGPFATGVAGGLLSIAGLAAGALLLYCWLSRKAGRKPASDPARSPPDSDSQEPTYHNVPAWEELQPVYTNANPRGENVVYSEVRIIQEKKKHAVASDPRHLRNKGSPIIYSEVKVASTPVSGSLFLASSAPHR
Experimental: To further determine binding of the FcRH5 murine antibodies and IgG clones, binding of iodinated IgG variants to OPM2 cells expressing human FcRH5 and SVT2 cells expressing cynomologous FcRH5, Scatchard analysis was performed.
After a four hour incubation at 4° C., cells were washed and cell pellet counts were read by a gamma counter (1470 WIZARD Automatic Gamma Counter; Perkin Elmer, Walthem, Mass.). All points were done in triplicate and counted for 10 minutes. The average CPM was used for Kd calculation using the New Ligand (Genentech, South San Francisco, Calif.) program.

[3] = test system: human FcRH1-6; assay: FACS cross-reactivity analysis on SVT2 cells stably expressing gD tagged huFcRH1-6; type: binding; details: 1.0 ug Ab (or 100 μl hybridoma supernatant) per 10^6 SVT2 cells expressing gD tagged huFcRH1-6
Experimental: To determine the cross-reactivity of FcRH5 antibodies, binding of IgG variants to SVT2 cells, expressing human FcRH1-6 were analyzed using FACS analysis.
Briefly, approximately 10^6 cells of SVT2 cells stably expressing gD tagged huFcRH1-6 in 100 μl were incubated with 1.0 ug of murine or chimeric Ab [Mu anti-gD (positive control), Mu anti-FcRH5 (1H4) (“mu1H4”), Mu anti-FcRH5 (4D10) (“mu4D10”), Mu anti-FcRH5 (6H1) (“mu6H1”), Mu anti-FcRH5 (7D11) (“mu7D11”), Ch anti-FcRH5 (7D11) (“ch7D11”), Mu anti-FcRH5 (8116) (“mu8H6”), Mu anti-FcRH5 (9E2) (“mu9E2”), or Mu anti-FcRH5 (13G9) (“mu13G9”)]. Incubation of SVT2 cells stably expressing the empty vector was incubated with the same antibodies and used as a negative control. PE conjugated Rat anti-MuIgG1, Rat anti-MuIgG2a+b, or Mu anti-HuIgG was used as the secondary detection antibody.
To further determine the cross-reactivity of FcRH5 antibodies, binding of IgG variant supernatants to SVT2 cells, expressing human FcRH1-6 were analyzed using FACS analysis.
Briefly, approximately 10^6 cells of SVT2 cells stably expressing gD tagged huFcRH1-6 were incubated with 1.0 μg purified Ms anti-gD antibody or 100 μl (concentration unknown) of murine Ab hybridoma supernatant (Mu anti-FcRH5 (10A8) (“mu10A8”), Mu anti-FcRH5 (10F5) (“mu10F5”)). […]

[4] = test system: cynomolgus FcRH5; assay: Cyno cross-reactivity by FACS on stably transfected cells (SVT2 cells expressing cynoFcRH5); type: binding, cynomolgus monkey; details: 1.0, 0.1 or 0.01 μg antibody per million SVT2 cells stably expressing cynoFcRH5
Chain of cynomolgus FcRH5 (as listed by the source): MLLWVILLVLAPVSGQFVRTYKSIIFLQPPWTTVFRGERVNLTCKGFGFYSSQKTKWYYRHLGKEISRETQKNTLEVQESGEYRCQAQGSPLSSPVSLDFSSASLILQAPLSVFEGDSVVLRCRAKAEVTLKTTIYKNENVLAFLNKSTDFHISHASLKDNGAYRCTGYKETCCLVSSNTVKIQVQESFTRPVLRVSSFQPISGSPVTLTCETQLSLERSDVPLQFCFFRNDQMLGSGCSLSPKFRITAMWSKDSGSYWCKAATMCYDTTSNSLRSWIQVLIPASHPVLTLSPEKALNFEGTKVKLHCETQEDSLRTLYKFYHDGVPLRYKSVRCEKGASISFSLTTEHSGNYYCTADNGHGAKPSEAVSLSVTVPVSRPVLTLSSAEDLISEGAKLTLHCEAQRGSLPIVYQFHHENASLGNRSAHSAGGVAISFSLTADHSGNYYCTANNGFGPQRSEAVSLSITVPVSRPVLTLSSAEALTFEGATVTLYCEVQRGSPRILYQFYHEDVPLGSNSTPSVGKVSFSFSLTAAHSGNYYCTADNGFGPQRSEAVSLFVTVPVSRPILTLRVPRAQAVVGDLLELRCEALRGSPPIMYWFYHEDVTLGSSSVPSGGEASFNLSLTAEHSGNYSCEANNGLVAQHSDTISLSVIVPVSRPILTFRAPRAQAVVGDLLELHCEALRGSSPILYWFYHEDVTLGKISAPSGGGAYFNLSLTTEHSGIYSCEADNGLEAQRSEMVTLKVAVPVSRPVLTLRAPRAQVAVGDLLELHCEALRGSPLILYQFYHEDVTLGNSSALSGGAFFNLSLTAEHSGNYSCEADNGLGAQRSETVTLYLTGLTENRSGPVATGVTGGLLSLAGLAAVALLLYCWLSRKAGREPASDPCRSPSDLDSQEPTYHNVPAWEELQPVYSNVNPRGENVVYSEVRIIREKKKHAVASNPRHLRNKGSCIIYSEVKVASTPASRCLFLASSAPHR
Experimental: For additional FACS analysis of FcRH5 antibodies, 1.0 μg, 0.1 μg or 0.01 μg of antibody was titrated per million cells of BJAB cells stably expressing huFcRH5 and SVT2 cells stably expressing cynoFcRH5. Briefly, approximately 10^6 cells in 100 μl were incubated with varying amounts (1.0 ug, 01. ug or 0.01 ug) of murine Ab mu1H4, mu6H1, mu7D11, mu9E2, mu10A8, mu10F5, or mu13G9 per million cells of BJAB cells stably expressing huFcRH5 and SVT2 cells stably expressing cynoFcRH5. Incubation with 1.0 ug/10^6 cells of the appropriate Mu IgG isotype control was used as a negative control. PE conjugated Rat anti-MuIgG1 or Rat anti-MuIgG2a+b was used as the secondary detection antibody.

[5] = biological target: T2, human FcRH5 (Homo sapiens, UniProt Q96RD9); assay: Affinity determination (Biacore analysis) of murine anti-FcRH5 IgGs; details: murine IgG captured on chip, 25° C., 1:1 Langmuir binding model; read-out: Affinity (Biacore) to Hu antigen
T2 construct: vectors that expresses the His-tagged extra-cellular domain (ECDs) of the FcRH5/IRTA2 into CHO cells; His tag (HIS6); made in house; host or cells: CHO cells (transient transfection)
T2 sequence (Q96RD9 16-851 limits assumed): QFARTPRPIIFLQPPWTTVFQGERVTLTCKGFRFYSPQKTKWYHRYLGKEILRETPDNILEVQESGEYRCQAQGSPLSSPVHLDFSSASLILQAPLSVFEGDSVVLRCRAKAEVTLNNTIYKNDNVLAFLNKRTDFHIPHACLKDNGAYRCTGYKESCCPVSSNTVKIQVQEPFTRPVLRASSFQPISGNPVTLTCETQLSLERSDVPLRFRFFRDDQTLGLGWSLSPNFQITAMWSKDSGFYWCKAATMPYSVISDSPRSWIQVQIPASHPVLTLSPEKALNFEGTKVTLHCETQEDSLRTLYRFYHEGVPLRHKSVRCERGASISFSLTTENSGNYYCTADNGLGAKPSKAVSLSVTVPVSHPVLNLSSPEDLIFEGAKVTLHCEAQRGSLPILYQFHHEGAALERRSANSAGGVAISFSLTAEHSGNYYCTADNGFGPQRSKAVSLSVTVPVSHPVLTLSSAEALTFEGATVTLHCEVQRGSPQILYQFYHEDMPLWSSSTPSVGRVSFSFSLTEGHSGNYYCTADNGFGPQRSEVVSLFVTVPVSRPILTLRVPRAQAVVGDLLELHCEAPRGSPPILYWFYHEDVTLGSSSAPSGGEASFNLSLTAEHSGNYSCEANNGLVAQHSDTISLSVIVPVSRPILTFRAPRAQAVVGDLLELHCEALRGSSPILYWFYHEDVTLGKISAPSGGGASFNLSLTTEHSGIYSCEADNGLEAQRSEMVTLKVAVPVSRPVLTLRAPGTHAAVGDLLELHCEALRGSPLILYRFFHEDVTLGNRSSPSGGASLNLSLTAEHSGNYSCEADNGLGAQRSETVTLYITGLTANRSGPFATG
Experimental: The FcRH-binding affinities of IgGs were calculated from association and dissociation rate constants measured using a Biacore 2000 surface plasmon resonance system (BIAcore, Inc.). A biosensor chip was activated for covalent coupling of either anti-murine IgG (BR-1008-338) using N-ethyl-N′-(3-dimethyaminopropyl)-carbodiimide hydrochloride (EDC) and N-hydroxysuccinimide (NHS) according to the supplier's instruction (BIAcore, Inc.). Briefly, for each cycle of kinetic analysis, 5 ul of 100 nM IgG was captured on the chip, two-fold serial dilution of various FcRHs were injected at a flow rate of 20 ul/min for 150 sec. Antigen dissociation was monitored for 180 sec before regeneration. Equilibrium dissociation constants at 25° C. were calculated by fitting the data with a 1:1 Langmuir binding model. Running buffer was PBS with 0.05% Tween −20. All the antibodies bound antigen with sufficient affinity to be used as a therapeutic.

| Molecule | in vitro cell growth inhibition (in words) [1] | relative binding affinity of humanized version 1 and the chimera [2] | specificity of binding among huFcRH1-6 by FACS [3] | cross reaction with cynomolgus FcRH5 by FACS analysis [4] | Kd [5] [nM] |
| --- | --- | --- | --- | --- | --- |
| hu10A8 v1: humanized 10A8 antibody, variable domains SEQ ID NO: 19 and SEQ ID NO: 21 (antibody, V domains shown) VH: EVQLVESGGGLVQPGGSLRLSCAASGFTFSSYAVSWVRQAPGKGLEWVATISSGGSLTFYLDSVRGRFTISRDNSKNTLYLQMNSLRAEDTAVYYCARPIPDYYALDYWGQGTLVTVSS VL: DIQMTQSPSSLSASVGDRVTITCKASQDVSTAVAWYQQKPGKAPKLLIYSASYRYTGVPSRFSGSGSGTDFTLTISSLQPEDFATYYCQQHFSSPRTFGQGTKVEIKR | no in vitro cell growth inhibition | equivalent to the chimera |  |  |  |
| 10A8: murine anti-FcRH5 monoclonal antibody, light chain variable domain SEQ ID NO: 18, heavy chain variable domain SEQ ID NO: 20 (antibody, listed as Mus musculus, V domains shown, Variable Domain of Heavy Chain of Humanized Antibody (mu10A8)) VH: EVQLVESGGGLVKPGGSLKISCAASGFTFSSYAVSWVRQTPEKRLEWVATISSGGSLTFYLDSVRGRFTISRDNAKNTLYLQMSSLRSEDTAMYYCARPIPDYYALDYWGQGTSVTVSS VL: DIVMTQSHKFMSTSVRDRVSITCKASQDVSTAVAWYQQKPGQSPKLLIYSASYRYTGVPDRFTGSGSGTDFTFTISSVQAEDLAVYYCQQHFSSPRTFGGGTKVEIKR |  |  | specifically bind FcRH5 | cross react with cynomolgus FcRH5 |  |
| 13G9: murine monoclonal antibody binding human FcRH5 (antibody, V domains shown) VH: EVQLVQSGPELKKPGETVKISCKASGYTFTNYGMNWVKQAPGKGLKWMGWVNTYTGEPTYTDDFKGRFAFSVETSASTVFLQINNLKNEDTATYFCARRSIPYYYAMDYWGQGTSLT VL: DIVMTQSQKIMSTSVGDRVNVTCKASQNVGSNVAWYHQKPGQSPKALIYSASYRYSGVPDRFTGSGSGTDFTLTISNVQSEDLAEYFCQQYKTWTFGGGTKLEIKR |  |  |  | cross react with cynomolgus FcRH5 | 19 |
